Measurements published in US20210230570A1 (published 2021).
Positions count from the first letter of the chain named. Numbers in names are those of the source. Each block holds one binder with its values, some of them ahead of it.

Target: T1, Factor VIIIa (recombinant FVIII, Kogenate FS, Bayer healthcare, activated with alpha-thrombin) (UniProt P00451 20-2351, limits assumed)
T1 construct: also called FVIIIa; cofactor
T1 sequence (looked up): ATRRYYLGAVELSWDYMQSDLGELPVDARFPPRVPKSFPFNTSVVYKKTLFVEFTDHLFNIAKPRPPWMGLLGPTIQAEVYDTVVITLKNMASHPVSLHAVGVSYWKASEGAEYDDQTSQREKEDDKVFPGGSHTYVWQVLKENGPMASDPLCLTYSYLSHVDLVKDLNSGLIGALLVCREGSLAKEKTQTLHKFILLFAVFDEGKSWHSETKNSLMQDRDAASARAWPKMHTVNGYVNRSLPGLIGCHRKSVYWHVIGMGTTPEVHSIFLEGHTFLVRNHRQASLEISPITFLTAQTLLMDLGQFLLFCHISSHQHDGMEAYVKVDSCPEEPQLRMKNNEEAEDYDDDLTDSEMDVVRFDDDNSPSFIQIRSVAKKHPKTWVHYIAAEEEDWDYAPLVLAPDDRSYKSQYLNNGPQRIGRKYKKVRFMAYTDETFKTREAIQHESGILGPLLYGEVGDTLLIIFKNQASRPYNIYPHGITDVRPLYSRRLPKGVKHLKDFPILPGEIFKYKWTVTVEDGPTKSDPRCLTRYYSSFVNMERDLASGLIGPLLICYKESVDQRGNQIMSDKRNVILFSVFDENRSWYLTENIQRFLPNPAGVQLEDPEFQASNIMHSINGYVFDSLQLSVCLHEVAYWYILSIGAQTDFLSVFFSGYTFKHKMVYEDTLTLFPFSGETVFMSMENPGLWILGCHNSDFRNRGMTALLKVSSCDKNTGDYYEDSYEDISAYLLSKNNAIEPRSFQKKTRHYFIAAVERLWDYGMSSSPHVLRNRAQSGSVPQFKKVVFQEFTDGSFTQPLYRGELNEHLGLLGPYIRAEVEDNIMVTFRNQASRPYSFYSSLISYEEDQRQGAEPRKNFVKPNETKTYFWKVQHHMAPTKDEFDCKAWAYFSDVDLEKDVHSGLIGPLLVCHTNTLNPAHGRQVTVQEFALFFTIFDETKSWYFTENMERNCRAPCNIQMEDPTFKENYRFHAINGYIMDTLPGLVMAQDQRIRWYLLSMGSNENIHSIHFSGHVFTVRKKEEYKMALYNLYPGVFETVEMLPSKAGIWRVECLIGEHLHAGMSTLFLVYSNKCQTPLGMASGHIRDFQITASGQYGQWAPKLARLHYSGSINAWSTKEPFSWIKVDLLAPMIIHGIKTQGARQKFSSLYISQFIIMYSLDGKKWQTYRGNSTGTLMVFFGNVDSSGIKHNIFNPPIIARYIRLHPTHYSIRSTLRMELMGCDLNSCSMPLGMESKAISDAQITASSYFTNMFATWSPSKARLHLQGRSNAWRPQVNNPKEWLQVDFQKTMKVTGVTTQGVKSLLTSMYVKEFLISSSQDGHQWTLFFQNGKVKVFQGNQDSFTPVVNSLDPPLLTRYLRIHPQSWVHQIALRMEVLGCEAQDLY
Assay: same assay; KD-app of Catalyst Biosciences WT FIXa divided by KD-app of the variant
Protocol: The molar concentration of FVIII was then determined by absorbance at 280 nm using an extinction coefficient of 1.567 mg⁻¹ mL cm⁻¹ and a molecular weight of 163.6 kDa.

B3: FIXa-R318Y/R338E/T343R/N346D/R403E/E410N (enzyme)
chain 1: YNSGKLEEFVQGNLERECMEEKCSFEEAREVFENTERTTEFWKQYVDGDQCESNPCLNGGSCKDDINSYECWCPFGFEGKNCELDVTCNIKNGRCEQFCKNSADNKVVCSCTEGYRLAENQKSCEPAVPFPCGRVSVSQTSKLTR
chain 2: VVGGEDAKPGQFPWQVVLNGKVDAFCGGSIVNEKWIVTAAHCVETGVKITVVAGEHNIEETEHTEQKRNVIRIIPHHNYNAAINKYNHDIALLELDEPLVLNSYVTPICIADKEYTNIFLKFGSGYVSGWGRVFHKGYSALVLQYLRVPLVDRATCLESTKFRIYDNMFCAGFHEGGRDSCQGDSGGPHVTEVEGTSFLTGIISWGEECAMKGKYGIYTKVSEYVNWIKNKTKLT
notes: also called R150Y/R170E/T175R/N178D/R233E/E240N (chymotrypsin numbering)
- KD-WT/KD-mut: 1.3 ratio

B4: FIXa-K247N/N249S/N260S/R318Y/R338E/R403E/E410N (enzyme)
chain 1: B3 chain 1
chain 2: B3 chain 2 with K67N, N69S, N80S, R163T, D166N
notes: also called K82N/N84S/N95S/R150Y/R170E/R233E/E240N (chymotrypsin numbering)
- KD-WT/KD-mut: 1.5 ratio

B5: FIXa-Y155F/K228N/R318Y/R338E/R403E/E410N (enzyme)
chain 1: B3 chain 1
chain 2: B3 chain 2 with K48N, R163T, D166N
- KD-WT/KD-mut: 3.1 ratio

B7: FIXa-R318Y/R338E/T343R/R403E/E410N (enzyme)
chain 1: B3 chain 1
chain 2: B3 chain 2 with D166N
notes: also called R150Y/R170E/T175R/R233E/E240N (chymotrypsin numbering)
- KD-WT/KD-mut: 6.6 ratio

B9: FIXa-Y155F/K247N/N249S/R318Y/R338E/E410N (enzyme)
chain 1: B3 chain 1
chain 2: B3 chain 2 with K67N, N69S, R163T, D166N, E223R
- KD-WT/KD-mut: 12.8 ratio

B10: FIXa-K228N/K247N/N249S/R318Y/R338E/R403E/E410N (enzyme)
chain 1: B3 chain 1
chain 2: B3 chain 2 with K48N, K67N, N69S, R163T, D166N
notes: also called K63N/K82N/N84S/R150Y/R170E/R233E/E240N (chymotrypsin numbering)
- KD-WT/KD-mut: 0.9 ratio

B11: FIXa-Y155F/K247N/N249S/N260S (enzyme)
chain 1: B3 chain 1
chain 2: B3 chain 2 with K67N, N69S, N80S, Y138R, E158R, R163T, D166N, E223R, N230E
- KD-WT/KD-mut: 0.6 ratio

B12: FIXa-R318Y/R338E/N346Y/R403E/E410N (enzyme)
chain 1: B3 chain 1
chain 2: B3 chain 2 with R163T, D166Y
notes: also called R150Y/R170E/N178Y/R233E/E240N (chymotrypsin numbering)
- KD-WT/KD-mut: 2.4 ratio

B14: FIXa-Y259F/K265T/Y345T (enzyme)
chain 1: B3 chain 1
chain 2: B3 chain 2 with Y79F, K85T, Y138R, E158R, R163T, Y165T, D166N, E223R, N230E
notes: also called Y94F/K98T/Y177T (chymotrypsin numbering)
- KD-WT/KD-mut: 0.8 ratio

B16: FIXa-D104N/K106S/I251S/R318Y/R338E/R403E/E410N (enzyme)
chain 1: B3 chain 1 with D104N, K106S
chain 2: B3 chain 2 with I71S, R163T, D166N
- KD-WT/KD-mut: 1.7 ratio

B17: FIXa-I251S/R318Y/R338E/E410N (enzyme)
chain 1: B3 chain 1
chain 2: B3 chain 2 with I71S, R163T, D166N, E223R
notes: also called I251S/R318Y/E410N/R338E; I86S/R150Y/R170E/E240N (chymotrypsin numbering)
- KD-WT/KD-mut: 16.7 ratio

B18: FIXa-R318Y/R338E/R403E/E410N/T412V (enzyme)
chain 1: B3 chain 1
chain 2: B3 chain 2 with R163T, D166N, T232V
notes: also called R150Y/R170E/R233E/E240N/T242V (chymotrypsin numbering)
- KD-WT/KD-mut: 1.7 ratio

B19: FIXa-R318Y/R338E/T343R/N346Y/R403E/E410N (enzyme)
chain 1: B3 chain 1
chain 2: B3 chain 2 with D166Y
notes: also called R150Y/R170E/T175R/N178Y/R233E/E240N (chymotrypsin numbering)
- KD-WT/KD-mut: 6.1 ratio

B20: FIXa-K247N/N249S/N260S (enzyme)
chain 1: B3 chain 1
chain 2: B3 chain 2 with K67N, N69S, N80S, Y138R, E158R, R163T, D166N, E223R, N230E
notes: also called K82N/N84S/N95S (chymotrypsin numbering)
- KD-WT/KD-mut: 0.6 ratio

Other lines, results leading:

- KD-WT/KD-mut: 1 ratio
B1: FIXa-A103N/N105S/K247N/N249S/R318Y/R338E/R403E/E410N (enzyme)
chain 1: B3 chain 1 with A103N, N105S
chain 2: B3 chain 2 with K67N, N69S, R163T, D166N

- KD-WT/KD-mut: 0.9 ratio
B2: FIXa-R318Y/R338E/N346D/R403E/E410N (enzyme)
chain 1: B3 chain 1
chain 2: B3 chain 2 with R163T
notes: also called R150Y/R170E/N178D/R233E/E240N (chymotrypsin numbering)

- KD-WT/KD-mut: 0.8 ratio
B6: FIXa-K228N/K247N/N249S (enzyme)
chain 1: B3 chain 1
chain 2: B3 chain 2 with K48N, K67N, N69S, Y138R, E158R, R163T, D166N, E223R, N230E
notes: also called K63N/K82N/N84S (chymotrypsin numbering)

- KD-WT/KD-mut: 1.1 ratio
B8: FIXa-D104N/K106S/K247N/N249S/R318Y/R338E/R403E/E410N (enzyme)
chain 1: B3 chain 1 with D104N, K106S
chain 2: B3 chain 2 with K67N, N69S, R163T, D166N

- KD-WT/KD-mut: 1.5 ratio
B13: FIXa-I251S/R318Y/R338E/R403E/E410N (enzyme)
chain 1: B3 chain 1
chain 2: B3 chain 2 with I71S, R163T, D166N
notes: also called I86S/R150Y/R170E/R233E/E240N (chymotrypsin numbering)

- KD-WT/KD-mut: 1.8 ratio
B15: FIXa-R318Y/R338E/R403E/E410S (enzyme)
chain 1: B3 chain 1
chain 2: B3 chain 2 with R163T, D166N, N230S
notes: also called R150Y/R170E/R233E/E240S (chymotrypsin numbering)

- KD-WT/KD-mut: 7.7 ratio
B21: FIXa-D104N/K106S/I251S/R318Y/R338E/E410N (enzyme)
chain 1: B3 chain 1 with D104N, K106S
chain 2: B3 chain 2 with I71S, R163T, D166N, E223R

- KD-WT/KD-mut: 10.7 ratio
B22: FIXa-R318Y/R338E/E410N/T412V (enzyme)
chain 1: B3 chain 1
chain 2: B3 chain 2 with R163T, D166N, E223R, T232V
notes: also called R150Y/R170E/E240N/T242V (chymotrypsin numbering)

- KD-WT/KD-mut: 14.1 ratio
B23: FIXa-R318Y/R338E/E410S (enzyme)
chain 1: B3 chain 1
chain 2: B3 chain 2 with R163T, D166N, E223R, N230S
notes: also called R150Y/R170E/E240S (chymotrypsin numbering)
